The values below come from publication doi:10.1101/2022.12.12.520143.

This assay concerns the target GDP-L-galactose phosphorylase 1 (GGP1) with His6, expressed in E. coli (Solanum lycopersicum (tomato)).

As for “PAS/LOV protein (PLP) with His6, expressed in tobacco (natural protein)”, the inhibition of GGP activity by PLP incubated 2 h in darkness before mixing was found to be 86%.
